In patent publication US20100098730A1:

What was measured:
[1] = molecular target: human FcRn (heterodimer of an alpha chain and a β2-microglobulin subunit), soluble (human) (UniProt P55899); assay: FcRn affinity at pH 6.0, as shown in FIG. 24 (BIAcore, human FcRn)
[2] = molecular target: human FcRn (heterodimer of an alpha chain and a β2-microglobulin subunit), soluble (human) (UniProt P55899); assay: SPR (BIAcore), soluble human FcRn injected over chip-coupled IgG, pH 6.0, 25 C, monovalent KD
[3] = molecular target: human FcRn (heterodimer of an alpha chain and a β2-microglobulin subunit), soluble (human) (UniProt P55899); assay: SPR, soluble human FcRn injected over IgG-coupled chip, monovalent KD, pH 6.0, 25 C
[4] = molecular target: human FcRn (heterodimer of an alpha chain and a β2-microglobulin subunit), soluble (human) (UniProt P55899); assay: SPR (BIAcore 3000), IgG injected over chip-coupled human FcRn, pH 6.0, 25 C; apparent (bivalent) KD estimated from the steady state curves of FIG. 1, Run 2
[5] = molecular target: human FcRn (heterodimer of an alpha chain and a β2-microglobulin subunit), soluble (human) (UniProt P55899); assay: SPR, bivalent IgG over human FcRn-coupled chip, steady state, apparent KD, pH 6.0, 25 C, second run (about two fold higher RU of FcRn)
[6] = molecular target: human FcRn (heterodimer of an alpha chain and a β2-microglobulin subunit), soluble (human) (UniProt P55899); assay: SPR (BIAcore 3000), soluble human FcRn injected over chip-coupled IgG, pH 6.0, 25 C
[7] = molecular target: human FcRn (heterodimer of an alpha chain and a β2-microglobulin subunit), soluble (human) (UniProt P55899); assay: SPR, human FcRn; fold over wildtype, summarized from FIGS. 4 and 5
[8] = molecular target: cynomolgus monkey FcRn (cyno alpha chain and cyno β2-microglobulin), soluble (cynomolgus monkey) (UniProt Q8SPV9); assay: SPR (BIAcore 3000), soluble cyno FcRn injected over chip-coupled IgG, pH 6.0, 25 C; monovalent KD (a) determined by ratio of koff to kon
Sequence of UniProt Q8SPV9 (Q8SPV9 24-297 limits assumed, chain 1 of 2): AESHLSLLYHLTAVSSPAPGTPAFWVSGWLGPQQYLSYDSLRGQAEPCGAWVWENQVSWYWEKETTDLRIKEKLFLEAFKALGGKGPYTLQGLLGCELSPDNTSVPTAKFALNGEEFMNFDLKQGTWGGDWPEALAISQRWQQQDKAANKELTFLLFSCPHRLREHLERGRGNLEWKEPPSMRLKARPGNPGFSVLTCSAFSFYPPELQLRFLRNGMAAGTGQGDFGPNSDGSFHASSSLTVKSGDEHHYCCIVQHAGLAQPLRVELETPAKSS
Sequence of UniProt Q8SPV9 (Q8SPW0 21-119 limits assumed, chain 2 of 2, further chain): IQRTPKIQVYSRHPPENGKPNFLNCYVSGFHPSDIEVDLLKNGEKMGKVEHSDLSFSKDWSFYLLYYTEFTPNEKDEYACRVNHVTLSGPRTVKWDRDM

[9] = molecular target: cynomolgus monkey FcRn (cyno alpha chain and cyno β2-microglobulin), soluble (cynomolgus monkey) (UniProt Q8SPV9); assay: SPR (BIAcore 3000), soluble cyno FcRn injected over chip-coupled IgG, pH 6.0, 25 C; monovalent KD (b) determined by fitting the steady state RU against concentration
[10] = molecular target: human FcRn (heterodimer of an alpha chain and a β2-microglobulin subunit), soluble (human) (UniProt P55899); assay: SPR (BIAcore 3000), soluble human FcRn injected over chip-coupled IgG, pH 6.0, 25 C; monovalent KD (a) determined by ratio of koff to kon
[11] = molecular target: human FcRn (heterodimer of an alpha chain and a β2-microglobulin subunit), soluble (human) (UniProt P55899); assay: SPR (BIAcore 3000), soluble human FcRn injected over chip-coupled IgG, pH 6.0, 25 C; monovalent KD (b) determined by fitting the steady state RU against concentration
[12] = molecular target: cynomolgus monkey FcRn (cyno alpha chain and cyno β2-microglobulin), soluble (cynomolgus monkey) (UniProt Q8SPV9); assay: SPR (BIAcore 3000), soluble cyno FcRn injected over chip-coupled IgG, pH 6.0, 25 C
[13] = molecular target: human FcRn (heterodimer of an alpha chain and a β2-microglobulin subunit), soluble (human) (UniProt P55899); assay: SPR (BIAcore 3000), IgG injected over chip-coupled human FcRn, pH 6.0, 25 C; apparent (bivalent) KD estimated from the steady state curves of FIG. 1, Run 1

Sequence of UniProt P55899 (P55899 24-297 limits assumed, chain 1 of 2): as the sequence (Q8SPV9 24-297 limits assumed, chain 1 of 2) above, with D39N, Q44E, S99G, G189S, N190S, M217L, T269S counted along it
Sequence of UniProt P55899 (P61769 21-119 limits assumed, chain 2 of 2, further chain): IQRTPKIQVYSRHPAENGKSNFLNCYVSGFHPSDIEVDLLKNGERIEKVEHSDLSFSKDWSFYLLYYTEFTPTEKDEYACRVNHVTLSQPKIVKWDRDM

## IgG1 variant N434A of a different human antibody
[1]
  fold higher FcRn affinity at pH 6.0 compared to the wildtype antibody: 3 fold

## N434A (antibody)
[2]
  Kd: 570 nM

## N434W (antibody)
[2]
  Kd: 44 nM

## anti-HER2 (trastuzumab) IgG1 variant M252Y/V308P/N434Y (antibody)
[2]
  Kd: 3.7 nM
[3]
  fold improvement of affinity over the wild-type IgG1: 450 fold

## anti-VEGF (Bevacizumab) IgG1 variant A378V (antibody)
[4]
  Kd: 500 nM

## anti-VEGF (Bevacizumab) IgG1 variant N434A (antibody)
[5]
  Kd: 250 nM

## anti-VEGF (Bevacizumab) IgG1 variant N434H (antibody)
[6]
  koff: 0.166 s⁻¹
  kon: 400000 M⁻¹ s⁻¹
[7]
  Bivalent Affinity Fold increase at pH 6.0: 9 fold
  Bivalent Affinity Fold increase at pH 7.4: 6 fold
  Monovalent Affinity Fold increase at pH 6.0: 3 fold
[8]
  Kd: 450 nM
[9]
  Kd: 470 nM
[4]
  Kd: 100 nM
[10]
  Kd: 420 nM
[11]
  Kd: 470 nM
[12]
  koff: 0.218 s⁻¹
  kon: 480000 M⁻¹ s⁻¹

## anti-VEGF (Bevacizumab) IgG1 variant T307Q (antibody)
[4]
  Kd: 250 nM

## anti-VEGF (Bevacizumab) IgG1 variant T307Q/A378V (antibody)
[4]
  Kd: 90 nM

## anti-VEGF (Bevacizumab) IgG1 variant T307Q/A378V/Y436I (antibody)
[4]
  Kd: 30 nM

## anti-VEGF (Bevacizumab) IgG1 variant T307Q/E380A/N434S (antibody)
[8]
  Kd: 153 nM
[9]
  Kd: 160 nM
[10]
  Kd: 146 nM
[11]
  Kd: 148 nM

## anti-VEGF (Bevacizumab) IgG1 variant T307Q/N434A (antibody)
[8]
  Kd: 240 nM
[9]
  Kd: 241 nM
[10]
  Kd: 240 nM
[11]
  Kd: 258 nM
[13]
  Kd: 180 nM

## anti-VEGF (Bevacizumab) IgG1 variant T307Q/Y436I (antibody)
[4]
  Kd: 70 nM

## anti-VEGF (Bevacizumab) IgG1 variant V308P/N434A (antibody)
[8]
  Kd: 66.6 nM
[9]
  Kd: 69.9 nM
[4]
  Kd: 8 nM
[10]
  Kd: 72 nM
[11]
  Kd: 76 nM
